The record followed here is the Immune Epitope Database (IEDB).

Assay [1] deals with HLA-A*02:03. The experiment in a line: IEDB peptide-MHC binding, purified MHC/direct/fluorescence; filed as Kd, often an IC50 or EC50 that approximates it; ≥ and ≤ were set here for values at or beyond the usual limits of such assays.
In assay [2] the target is HLA-A*02:11. The description is as above.
Assay [3] concerns the target HLA-A*02:12. The description is as above.
Assay [4] has as its target HLA-A*02:16. The assay is described as above.
The target in assay [5] is HLA-A*02:19. The assay is described as above.
In assay [6] the target is HLA-A*03:01. Described as above.
Assay [7] addresses HLA-A*24:03. The description is as above.
In assay [8] the target is HLA-A*29:02. Described as above.
The target of assay [9] is HLA-A*68:02. The assay is described as above.
In assay [10] the target is HLA-A*02:01. The experiment in a line: IEDB peptide-MHC binding, purified MHC/competitive/fluorescence; filed as Kd, often an IC50 or EC50 that approximates it; ≥ and ≤ were set here for values at or beyond the usual limits of such assays.
The target of assay [11] is HLA-A*26:01. The description is as above. The settings on record: source organism: Zaire ebolavirus.
Assay [12] deals with HLA-A*69:01. The assay is described as above. The settings on record: source organism: Zaire ebolavirus.
Assay [13] deals with HLA-B*15:01. Described as above. The conditions noted are these: source organism: Zaire ebolavirus.
Assay [14] deals with HLA-B*15:17. Described as above. The conditions noted are these: source organism: Zaire ebolavirus.
In assay [15] the target is HLA-B*18:01. The description is as above. The conditions noted are these: source organism: Zaire ebolavirus.
In assay [16] the target is HLA-B*27:03. Described as above. The conditions noted are these: source organism: Zaire ebolavirus.
Assay [17] has as its target HLA-B*39:01. Described as above. The settings on record: source organism: Zaire ebolavirus.
For assay [18], the target named is HLA-B*46:01. The assay is described as above. The conditions noted are these: source organism: Zaire ebolavirus.
The target in assay [19] is HLA-B*51:01. The assay is described as above. The conditions noted are these: source organism: Zaire ebolavirus.
Assay [20] addresses HLA-B*57:01. The assay is described as above. The settings on record: source organism: Zaire ebolavirus.
The target in assay [21] is HLA-A*01:01. The experiment in a line: IEDB peptide-MHC binding, purified MHC/direct/fluorescence; filed as Kd, often an IC50 or EC50 that approximates it; ≥ and ≤ were set here for values at or beyond the usual limits of such assays. The conditions noted are these: source organism: West Nile virus.
Assay [22] addresses HLA-A*02:01. The description is as above. The conditions noted are these: source organism: West Nile virus.
The target in assay [23] is HLA-A*11:01. The assay is described as above. The settings on record: source organism: West Nile virus.
Assay [24] deals with HLA-A*31:01. The description is as above. The settings on record: source organism: West Nile virus.
Assay [25] has as its target HLA-A*69:01. Described as above. The settings on record: source organism: West Nile virus.
For assay [26], the target named is HLA-B*08:01. The description is as above.
Assay [27] deals with HLA-B*08:02. The assay is described as above.
Assay [28] deals with HLA-B*15:01. Described as above. The conditions noted are these: source organism: West Nile virus.
Assay [29] has as its target HLA-B*18:01. Described as above. The conditions noted are these: source organism: West Nile virus.
Assay [30] deals with HLA-B*27:05. The description is as above. The settings on record: source organism: West Nile virus.
In assay [31] the target is HLA-B*40:01. The assay is described as above. The conditions noted are these: source organism: West Nile virus.
Assay [32] addresses HLA-B*44:02. The assay is described as above. The settings on record: source organism: West Nile virus.
Assay [33] deals with HLA-B*46:01. The description is as above. The settings on record: source organism: West Nile virus.
For assay [34], the target named is HLA-B*51:01. Described as above. The settings on record: source organism: West Nile virus.
Assay [35] deals with HLA-B*58:01. Described as above. The settings on record: source organism: West Nile virus.
Assay [36] has as its target HLA-B*07:02. Description: IEDB peptide-MHC binding, purified MHC/competitive/fluorescence; ≥ and ≤ were set here for values at or beyond the usual limits of such assays.
Assay [37] concerns the target HLA-A*24:02. The description is as above. The settings on record: source organism: Zaire ebolavirus.
The target in assay [38] is HLA-A*02:01. The assay is described as above. The conditions noted are these: source organism: Zaire ebolavirus.
In assay [39] the target is HLA-B*15:01. The description is as above. The settings on record: source organism: Zaire ebolavirus.
The mark [40] stands for this setting: source organism: Ebola virus Yambio0403.
The mark [41] stands for this setting: source organism: Zaire ebolavirus.
[42] abbreviates: source organism: West Nile virus.
[43] abbreviates: source organism: Giardia lamblia ATCC 50803.

In the case of RYEFTAPFI, the Kd in assay [1] (setting [40]), in [2] (setting [40]), in [3] (setting [40]), in assay [4] (setting [40]), in assay [5] (setting [40]) and in assay [6] (setting [40]) was no less than 20 µM each time. The Kd was 0.0002 µM in assay [7] (setting [41]); no less than 20 µM in [8] (setting [40]); no less than 20 µM in assay [9] (setting [40]); no less than 20 µM in assay [10] (setting [41]); no less than 20 µM in assay [11]; no less than 20 µM in [12]. For the same sequence, the Kd in [13], in assay [14], in [15], in assay [16], in assay [17] and in assay [18] was no less than 20 µM throughout. The Kd in assay [19] and in assay [20] was no less than 20 µM each time.

Regarding HSRRSRRSL, the Kd in assay [21], in assay [22], in assay [6] (setting [42]), in assay [23], in assay [8] (setting [42]) and in assay [24] was no less than 20 µM throughout. The Kd was no less than 20 µM in assay [25]; 0.211 µM in [26] (setting [42]); 5.67 µM in assay [27] (source organism: West Nile virus strain PTRoxo); no less than 20 µM in assay [28]; no less than 20 µM in assay [29]; no less than 20 µM in assay [30]. Moreover, the Kd in [31], in assay [32], in assay [33], in assay [34] and in assay [35] was no less than 20 µM throughout.

IPYFGPAAE: the IC50 in assay [36] (setting [41]) was no less than 135 µM.

Sequence KPGPDNSTH yielded a concentration for half-maximal inhibition (IC50) in assay [36] (setting [41]) of no less than 191 µM.

For LPKTSGHYD, in assay [36] (setting [41]), the IC50 is no less than 182 µM.

In [36] (setting [41]), TPTVAPPAP yielded an IC50 of no less than 145 µM.

Take AAPDGIRGF: the IC50 was 69.8 µM in [37] and 12.2 µM in assay [36] (setting [41]).

Take ELRKRNEAL: the Kd in [26] (setting [43]) was 0.042 µM; in assay [27] (setting [43]), 2.82 µM; in assay [10] (setting [43]), no less than 20 µM.

Take NYNGLLSSI: the Kd in [1] (setting [41]), in assay [2] (setting [41]), in assay [3] (setting [41]), in [4] (setting [41]), in assay [5] (setting [41]) and in [6] (setting [41]) was no less than 20 µM in each case. In addition, the dissociation constant Kd in assay [7] (source organism: Ebola virus - Gabon (1994-1997)) was 0.0003 µM; in assay [9] (setting [41]) it was no less than 20 µM; in assay [10] (setting [41]) it was no less than 20 µM; in [11], no less than 20 µM; in [12], no less than 20 µM; in assay [13], no less than 20 µM. In addition, the Kd in [14], in [15], in assay [16], in assay [17], in [18] and in assay [19] was no less than 20 µM each time. Besides, the Kd in assay [20] was no less than 20 µM.

With GPRGALSLL, the IC50 in [36] (source organism: Homo sapiens) was 0.166 µM. This counts as sub-micromolar.

As for MLKRRGFHL, the Kd in [27] (source organism: Salmonella enterica subsp. enterica serovar Typhi str. CT18) was determined as 0.102 µM. That is a sub-micromolar value.

For QFLSFASLF, the IC50 in assay [38] was no less than 88.1 µM; in [37], 0.0128 µM; in assay [39] it was 9.93 µM. For the same sequence, the Kd in assay [1] (setting [41]), in assay [2] (setting [41]), in [3] (setting [41]), in assay [4] (setting [41]), in [5] (setting [41]) and in assay [6] (setting [41]) was no less than 20 µM each time. For the same sequence, the Kd in assay [7] (source organism: Reston ebolavirus) is 0.0027 µM; in assay [9] (setting [41]), no less than 20 µM; in [10] (setting [41]) it was no less than 20 µM; in [11], no less than 20 µM; in assay [12], no less than 20 µM; in assay [14], no less than 20 µM. Besides, the Kd in assay [15], in [16], in assay [17], in assay [18], in assay [19] and in assay [20] was no less than 20 µM throughout.
